Series [1] is described as follows: Degree of α-helicity by circular dichroism (CD) spectroscopy. The format is physicochemical.
For series [2], the target named is T1, SARS-CoV-2 S protein RBD RBD (Severe acute respiratory syndrome coronavirus 2), P0DTC2. Conditions: modification not given.
For series [3], the target named is T1, SARS-CoV-2 S protein RBD RBD (Severe …). To be noted: modification not given. The source holds these as a separate data set.
Series [4] shares this target. To be noted: modification not given. The source holds these as a separate data set.
The target is the same in series [5]. Conditions: modification not given. The source holds these as a separate data set.
Series [6] has the same target. To be noted: modification not given. This is another data set of the same source.

Read-outs that look alike come from different tables or passages of the source.

With `CC[C@H](C)[C@H](N)C(=O)N[C@@H](CCC(=O)O)C(=O)N[C@@H](CCC(=O)O)C(=O)N[C@@H](CCC(N)=O)C(=O)N[C@@H](C)C(=O)N[C@@H](CCCCN)C(=O)N[C@H](C(=O)N[C@@H](Cc1ccccc1)C(=O)N[C@@H](CC(C)C)C(=O)N[C@@H](CC(=O)O)C(=O)N[C@@H](CCCCNC(=O)CCS)C(=O)N[C@@H](Cc1ccccc1)C(=O)N[C@@H](CC(N)=O)C(=O)N[C@@H](Cc1c[nH]cn1)C(=O)N[C@@H](CCC(N)=O)C(=O)N[C@@H](C)C(=O)N[C@@H](CCC(=O)O)C(=O)N[C@@H](CC(=O)O)C(=O)N[C@@H](CC(C)C)C(=O)N[C@@H](Cc1ccccc1)C(=O)N[C@@H](Cc1ccc(O)cc1)C(=O)N[C@H](CCCCN)C(=O)O)[C@@H](C)O` [h1–Mpa], in series [1] (solvent H2O), the “α-Helicity, H2O” value is recorded as 6.0%. Further, in series [1] (solvent trifluoroethanol (TFE)), the “α-Helicity, TFE” value was determined as 85.3%. Besides, the “α-Helicity, WEM” value in series [1] (solvent water–ethanol mixture (WEM)) came to 37.8%.

B1: 900h2 (64-87) (peptide)
chain: NCGDKWSAFLKEQSTLAQMYPLQE
For the molecule B1, the Kd in series [2] worked out at 7220 nM; in series [3] it was 1700 nM.

B2: h1-Mpa (21-42) (peptide)
chain: IEEQAKTFLDKFNHQAEDLFYK
In series [4], B2 yielded a Kd of 1070 nM.

B3: h2 (67-89) (peptide)
chain: DKWSAFLKEQSTIAQMYPLQECI
As to B3, the values for the Kd in series [5] and in series [6] were 2580 nM and 40000 nM, respectively.

The record behind these values is article PMC9798946, “Properties and Activity of Peptide Derivatives of ACE2 Cellular Receptor and Their Interaction with SARS-CoV-2 S Protein Receptor-Binding Domain” (Doklady. Biochemistry and Biophysics, 2022).
